Among the data in publication doi:10.1101/2024.12.18.629124 are Kd values, retold here.

Experiment in all cases: SPR
In assay [1] the target is Staufen dsRBD3-4-L4 (aa 578-951) (Drosophila melanogaster) (UniProt P25159).
For assay [2], the target named is GST-Staufen FL (Drosophila melanogaster) (UniProt P25159).
The target in assay [3] is Tm1 FL (Drosophila melanogaster).
Assay [4] has as its target Tm1 1-335 (Drosophila melanogaster).

The substance Tm1 1-213 L93Y (domain or fragment) had a Kd in assay [1] of 1420 nM.
With Tm1 FL (natural protein), the Kd in assay [2] was found to be 86.6 nM.
With Tm1 1-213 (domain or fragment), the Kd in assay [1] was determined as 495 nM.
On to “Staufen dsRBD3-4-5-C-term (domain or fragment)”, for which the Kd in assay [3] is 152 nM.
On to Tm1 1-335 (domain or fragment), for which the Kd in assay [2] was found to be 386 nM; in assay [1] it was 262 nM.
“Khc-Tm1 complex (from UniProt P17210 1-975)” showed a Kd in assay [2] of 13 nM.
“Staufen dsRBD3-4-L4 (aa 578-951) (from UniProt P25159 578-951) (domain or fragment)” had a Kd in assay [4] of 224 nM.

By Kd is commonly meant the constant that tells how readily two partners part at equilibrium. Low readings indicate higher affinity, high ones lower affinity.
